Legend:
[1] = target: GLI3-ZF-CH6 (GLI3 ZFD) (UniProt P10071 480-632); test: EMSA; preferred over ZBS core; Footprinting: 20 mM Tris-HCl pH 8.0, 3 mM MgCl2, 5 mM CaCl2, 100 mM NaCl, 100 mM DTT, 0.1 mM EDTA, 50 ug/ml BSA, 25 C, 30 min; EMSA conditions as in earlier work; conditions: protein: recombinant; blunt
[2] = target: T1, F-HA-Zic2 (UniProt Q62520 1-530); test: EMSA; even at 3-fold excess over ZBS core; Footprinting: 20 mM Tris-HCl pH 8.0, 3 mM MgCl2, 5 mM CaCl2, 100 mM NaCl, 100 mM DTT, 0.1 mM EDTA, 50 ug/ml BSA, 25 C, 30 min; EMSA conditions as in earlier work; conditions: protein: recombinant; tags: N-terminal FLAG-HA; blunt
T1 sequence (Q62520 whole entry): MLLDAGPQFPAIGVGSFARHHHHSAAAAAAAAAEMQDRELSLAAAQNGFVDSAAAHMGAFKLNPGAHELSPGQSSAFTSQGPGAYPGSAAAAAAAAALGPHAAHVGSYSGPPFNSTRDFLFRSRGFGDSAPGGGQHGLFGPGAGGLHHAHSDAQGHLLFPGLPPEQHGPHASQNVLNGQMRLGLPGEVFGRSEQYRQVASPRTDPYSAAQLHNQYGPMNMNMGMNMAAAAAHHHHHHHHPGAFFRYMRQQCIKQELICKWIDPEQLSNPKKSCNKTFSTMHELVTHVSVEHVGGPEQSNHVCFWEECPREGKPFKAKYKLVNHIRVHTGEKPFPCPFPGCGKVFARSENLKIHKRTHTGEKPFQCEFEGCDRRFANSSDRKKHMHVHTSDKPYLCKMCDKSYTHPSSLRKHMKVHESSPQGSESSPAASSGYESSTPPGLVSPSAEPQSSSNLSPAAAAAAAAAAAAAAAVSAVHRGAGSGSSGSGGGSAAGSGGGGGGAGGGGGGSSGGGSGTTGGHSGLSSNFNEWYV

[3] = target: T1, F-HA-Zic2; test: competition; against N8; inhibits complex formation; Footprinting: 20 mM Tris-HCl pH 8.0, 3 mM MgCl2, 5 mM CaCl2, 100 mM NaCl, 100 mM DTT, 0.1 mM EDTA, 50 ug/ml BSA, 25 C, 30 min; EMSA conditions as in earlier work; conditions: protein: recombinant; tags: N-terminal FLAG-HA; label: none
[4] = target: T1, F-HA-Zic2; test: competition; against N9; inhibits complex formation; Footprinting: 20 mM Tris-HCl pH 8.0, 3 mM MgCl2, 5 mM CaCl2, 100 mM NaCl, 100 mM DTT, 0.1 mM EDTA, 50 ug/ml BSA, 25 C, 30 min; EMSA conditions as in earlier work; conditions: protein: recombinant; tags: N-terminal FLAG-HA; label: none
[5] = target: T1, F-HA-Zic2; test: competition; against N1; shifted bands disappear completely; Footprinting: 20 mM Tris-HCl pH 8.0, 3 mM MgCl2, 5 mM CaCl2, 100 mM NaCl, 100 mM DTT, 0.1 mM EDTA, 50 ug/ml BSA, 25 C, 30 min; EMSA conditions as in earlier work; conditions: protein: recombinant; tags: N-terminal FLAG-HA; label: none

Sequence of GLI3-ZF-CH6 (GLI3 ZFD) (P10071 480-632): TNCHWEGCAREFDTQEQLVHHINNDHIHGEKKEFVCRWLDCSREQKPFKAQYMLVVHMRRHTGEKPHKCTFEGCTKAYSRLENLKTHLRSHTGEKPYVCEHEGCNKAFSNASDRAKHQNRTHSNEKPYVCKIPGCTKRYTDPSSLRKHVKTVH

B1: GBS probe (dsDNA)
DNA 1: CGTCTTGGGTGGTCTCCCTC
DNA 2: GAGGGAGACCACCCAAGACG
B1: binds [1]; no binding [2].

B2: cp8 (-1688 to -1669) (dsDNA)
DNA 1: GTCATCCCCTGCCGGGTCCC
DNA 2: GGGACCCGGCAGGGGATGAC
B2: binds [3].

B3: cp11 (-1830 to -1811) (dsDNA)
DNA 1: CCCGAGTCCCCGGCGGATGT
DNA 2: ACATCCGCCGGGGACTCGGG
B3: binds [4].

B4: cp4 (-1728 to -1709) (dsDNA)
DNA 1: CCCGCACCACATGAGTCCCG
DNA 2: CGGGACTCATGTGGTGCGGG
B4: binds [5].
